# ± gives the uncertainty stated by the source.
# Assay: self-splicing fitness, log relative to wild type (ln ratio); higher = more splicing; Tetrahymena group I intron in knt gene, E. coli kanamycin selection, DiMSum; sequences stand for … in CUCUCU…GGAGGGAAAAGUUAUCAGGCAUGCACCUGGUAGCUAGUCUUUAAACCAAUAGAUUGCAUCGGUUUAAAAGGCAAGACCGUCAAAUUGCGGGAAAGGGGUCAACAGCCGUUCAGUACCAAGUCUCAGGGGAAACUUUGAGAUGGCCUUGCAAAGGGUAUGGUAAUAAGCUGACGGACAUGGUCCUAACCACGCAGCCAAGUCCUAAGUCAACAGAUCUUCUGUUGAUAUGGAUGCAGUUCACAGACUAAAUGUCGGUCGGGGAAGAUGUAUUCUUCUCAUAAGAUAUAGUCGGACCUCUCCUUAAUGGGAGCUAGCGGAUGAAGUGAUGCAACACUGGAGCCGCUGGGAACUAAUUUGUAUGCGAAAGUAUAUUGAUUAGUUUUGGAGUACUCGUGGUCG
# Method in brief: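 Fitness was computed with DiMSum as the error-weighted combination of replicate fold changes, kanamycin versus none, each normalised to wild type. The library randomised all eight intron nucleotides of the P1ex region, with the intron placed in the knt kanamycin-resistance gene on pET-22b(+) in E. coli BL21(DE3). Six replicate transformations were grown overnight at 37°C or 30°C on LB agar with or without 25 μg/mL kanamycin, plus 100 μg/mL carbenicillin, 50 μM IPTG and 0.2% rhamnose. Pooled colonies were amplicon-sequenced on an Illumina HiSeq 2500.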
Sequence,self-splicing fitness (ln) (30 °C),self-splicing fitness (ln) (37 °C)
GUUGAGCAAUAUUACGAUGC,-2.24 ± 0.49,-2.24 ± 0.45
AUGAAGCAAUAUUACGAGGG,-2.64 ± 0.21,-2.83 ± 0.28
UGUUAGCAAUAUUACGGCUU,-0.797 ± 0.16,-0.574 ± 0.19
AACGAGCAAUAUUACGAGUA,-3.14 ± 0.17,-2.12 ± 0.14
UUCUAGCAAUAUUACGGUCC,,-2.46 ± 0.39
GCAUAGCAAUAUUACGACCG,-0.896 ± 0.17,0.516 ± 0.14
AAACAGCAAUAUUACGCCUG,-1.99 ± 0.096,-0.538 ± 0.1
ACUGAGCAAUAUUACGGGUA,-3.08 ± 0.24,-1.67 ± 0.14
GUAUAGCAAUAUUACGACAC,0.143 ± 0.091,0.241 ± 0.12
AACCAGCAAUAUUACGCCAC,-3.16 ± 0.19,-2.97 ± 0.4
UGGGAGCAAUAUUACGCCUU,-2.66 ± 0.26,-1.66 ± 0.31
CUGGAGCAAUAUUACGCUAU,-3.45 ± 0.38,-2.67 ± 0.38
GGUGAGCAAUAUUACGUAUC,-1.77 ± 0.1,-0.807 ± 0.12
ACGGAGCAAUAUUACGCAGC,-3.02 ± 0.3,
AGUGAGCAAUAUUACGGACC,-0.918 ± 0.22,-0.539 ± 0.33
CCUGAGCAAUAUUACGCGGU,-3.87 ± 0.21,-1.54 ± 0.16
AGCGAGCAAUAUUACGCUAG,-3.66 ± 0.29,-2.04 ± 0.27
AGCCAGCAAUAUUACGGCAA,-0.763 ± 0.067,-0.321 ± 0.075
AUUCAGCAAUAUUACGAUAC,-1.17 ± 0.097,0.368 ± 0.11
CUUAAGCAAUAUUACGCGGA,-1.74 ± 0.25,-2.58 ± 0.44
AGGAAGCAAUAUUACGUUGG,-3.22 ± 0.3,-2.33 ± 0.17
AUAGAGCAAUAUUACGCUUA,-0.78 ± 0.084,0.522 ± 0.16
UCUCAGCAAUAUUACGAGGC,,-1.54 ± 0.36
CAGGAGCAAUAUUACGGUCC,-2.86 ± 0.24,-2.86 ± 0.38
GCUUAGCAAUAUUACGACGC,-0.0232 ± 0.13,-0.351 ± 0.16
CCGCAGCAAUAUUACGGGCA,-2.72 ± 0.17,-2.43 ± 0.18

Sequence,self-splicing fitness (ln) (30 °C),self-splicing fitness (ln) (37 °C)
AACGAGCAAUAUUACGAAUC,-3.96 ± 0.26,-2.5 ± 0.41
CGCAAGCAAUAUUACGUCCA,-1.46 ± 0.089,-0.939 ± 0.1
ACCAAGCAAUAUUACGACGU,-0.00288 ± 0.056,0.552 ± 0.063
CAAAAGCAAUAUUACGCCUA,-2.75 ± 0.27,-1.51 ± 0.17
GUGUAGCAAUAUUACGUUUU,-3.32 ± 0.16,-1.45 ± 0.12
CAACAGCAAUAUUACGUGCG,-0.886 ± 0.053,-0.129 ± 0.074
GGAUAGCAAUAUUACGCUUU,-2.1 ± 0.16,-2.16 ± 0.21
GCAAAGCAAUAUUACGGAUG,-2.52 ± 0.12,-1.74 ± 0.13
AUCCAGCAAUAUUACGACGG,-4 ± 0.3,-1.8 ± 0.19
UAGGAGCAAUAUUACGAGAU,,-1.95 ± 0.36
CACAAGCAAUAUUACGAAAA,-3.15 ± 0.17,-2.57 ± 0.24
GUAAAGCAAUAUUACGGAGU,-3.08 ± 0.26,-2.81 ± 0.29
GUCCAGCAAUAUUACGGACU,-3.74 ± 0.29,-3.05 ± 0.4
AAUGAGCAAUAUUACGCUCA,-1.91 ± 0.42,-0.648 ± 0.38
GAUCAGCAAUAUUACGCUAG,-1.15 ± 0.15,-0.723 ± 0.18
UUACAGCAAUAUUACGAUUA,-0.238 ± 0.094,-0.0645 ± 0.089
CGCCAGCAAUAUUACGCACC,-2.37 ± 0.17,-2.33 ± 0.35
AGUGAGCAAUAUUACGGAUG,-3.2 ± 0.24,-3.06 ± 0.3
GUGGAGCAAUAUUACGAUGG,,-2.9 ± 0.38
CCACAGCAAUAUUACGCGCC,-3.03 ± 0.29,
UAAUAGCAAUAUUACGGCUA,0.00533 ± 0.088,0.527 ± 0.094
ACGAAGCAAUAUUACGUGUA,-2.15 ± 0.058,-1.24 ± 0.058
CUAGAGCAAUAUUACGGAUU,,-3.03 ± 0.43
GGCAAGCAAUAUUACGCUCU,-2.51 ± 0.17,-1.96 ± 0.18
CGUUAGCAAUAUUACGGGUU,-3.4 ± 0.24,-2.42 ± 0.25
UGAGAGCAAUAUUACGUGAG,-2.43 ± 0.14,-1.83 ± 0.2

Sequence,self-splicing fitness (ln) (30 °C),self-splicing fitness (ln) (37 °C)
ACUGAGCAAUAUUACGAAAG,-2.67 ± 0.15,-1.73 ± 0.18
GUAGAGCAAUAUUACGGCCG,-0.867 ± 0.16,0.266 ± 0.21
AUCGAGCAAUAUUACGCUUA,-2.01 ± 0.18,-0.429 ± 0.13
CGCUAGCAAUAUUACGUGAA,-3.59 ± 0.16,-2.34 ± 0.087
CCUUAGCAAUAUUACGCGCC,-2.8 ± 0.4,
CAGGAGCAAUAUUACGCCUA,-0.617 ± 0.19,-1.01 ± 0.21
ACAUAGCAAUAUUACGAGUU,-3.28 ± 0.18,-2.28 ± 0.2
GGUGAGCAAUAUUACGUGCC,-3.67 ± 0.33,-2.67 ± 0.38
AUAAAGCAAUAUUACGAUAU,-0.0773 ± 0.088,0.168 ± 0.1
UAGCAGCAAUAUUACGUAUC,-3.16 ± 0.16,-2.87 ± 0.25
ACCGAGCAAUAUUACGGAGA,-1.34 ± 0.29,-1.48 ± 0.28
UGACAGCAAUAUUACGGGCG,-0.223 ± 0.1,0.3 ± 0.11
CAAAAGCAAUAUUACGUCCU,-2.18 ± 0.087,-0.725 ± 0.09
GUAGAGCAAUAUUACGAGUG,-1.59 ± 0.18,-2.1 ± 0.21
CUUAAGCAAUAUUACGAGUU,,-2.42 ± 0.36
CUCGAGCAAUAUUACGAAUA,-3.12 ± 0.3,-2.59 ± 0.28
AAUUAGCAAUAUUACGUCGA,-1.22 ± 0.14,-0.488 ± 0.15
CUCCAGCAAUAUUACGAGAG,-4.68 ± 0.31,-1.32 ± 0.13
AGACAGCAAUAUUACGCAUA,-2.73 ± 0.18,-1.23 ± 0.11
GUGAAGCAAUAUUACGGGUC,-2.26 ± 0.21,-2.21 ± 0.28
AAUGAGCAAUAUUACGACCC,-3.25 ± 0.32,0.0637 ± 0.21
UACCAGCAAUAUUACGAUGA,-0.0346 ± 0.056,-0.119 ± 0.065
UAGUAGCAAUAUUACGGACG,-2.09 ± 0.12,-0.623 ± 0.13
UAACAGCAAUAUUACGAAGU,-3.97 ± 0.17,-3.18 ± 0.16
ACGGAGCAAUAUUACGUGCA,,-1.4 ± 0.22
ACGAAGCAAUAUUACGAGUG,-2.77 ± 0.1,-2.29 ± 0.11
